Measurements from the supplement of paper PMC7877785.
± gives the uncertainty stated by the source.

Experiment: self-splicing fitness, log relative to wild type (ln ratio); higher = more splicing; Tetrahymena group I intron in knt gene, E. coli kanamycin selection, DiMSum; sequences stand for … in CUCUCU…GGAGGGAAAAGUUAUCAGGCAUGCACCUGGUAGCUAGUCUUUAAACCAAUAGAUUGCAUCGGUUUAAAAGGCAAGACCGUCAAAUUGCGGGAAAGGGGUCAACAGCCGUUCAGUACCAAGUCUCAGGGGAAACUUUGAGAUGGCCUUGCAAAGGGUAUGGUAAUAAGCUGACGGACAUGGUCCUAACCACGCAGCCAAGUCCUAAGUCAACAGAUCUUCUGUUGAUAUGGAUGCAGUUCACAGACUAAAUGUCGGUCGGGGAAGAUGUAUUCUUCUCAUAAGAUAUAGUCGGACCUCUCCUUAAUGGGAGCUAGCGGAUGAAGUGAUGCAACACUGGAGCCGCUGGGAACUAAUUUGUAUGCGAAAGUAUAUUGAUUAGUUUUGGAGUACUCGUGGUCG
Summary of the method: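 Pooled colonies went to amplicon sequencing on an Illumina HiSeq 2500 after six replicate transformations. The plates were LB agar with 100 μg/mL carbenicillin, 50 μM IPTG and 0.2% rhamnose, with or without 25 μg/mL kanamycin, incubated overnight at 37°C or 30°C. The E. coli BL21(DE3) library had all eight P1ex-region intron nucleotides randomised, the intron placed in the knt kanamycin-resistance gene on pET-22b(+). DiMSum fitness is the error-weighted combination of replicate fold changes, kanamycin against none, normalised to wild type.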

Sequence | self-splicing fitness (ln) (37 °C) | self-splicing fitness (ln) (30 °C)
GUUUAGCAAUAUUACGAGUC | -0.725 ± 0.21 | 
GUUUAGCAAUAUUACGAUCA | -0.619 ± 0.16 | -1.38 ± 0.31
GUUUAGCAAUAUUACGCACA | -0.0205 ± 0.14 | -0.867 ± 0.12
GUUUAGCAAUAUUACGCAUA | -1.19 ± 0.19 | -1.69 ± 0.18
GUUUAGCAAUAUUACGCAUC | -1.04 ± 0.19 | -1.28 ± 0.14
GUUUAGCAAUAUUACGCCCG | -1.18 ± 0.24 | -3.02 ± 0.24
GUUUAGCAAUAUUACGCGUC | -0.647 ± 0.24 | -1.79 ± 0.24
GUUUAGCAAUAUUACGCGUU | -0.943 ± 0.2 | -1.75 ± 0.16
GUUUAGCAAUAUUACGCUCU | -0.764 ± 0.11 | -0.694 ± 0.091
GUUUAGCAAUAUUACGCUUA | -0.129 ± 0.12 | -1.24 ± 0.15
GUUUAGCAAUAUUACGCUUU | -0.513 ± 0.22 | -2.38 ± 0.25
GUUUAGCAAUAUUACGGAAU | -1.26 ± 0.31 | -2.56 ± 0.31
GUUUAGCAAUAUUACGGCAG | -1.66 ± 0.38 | -2.12 ± 0.26
GUUUAGCAAUAUUACGGCCU | 0.714 ± 0.15 | -0.716 ± 0.15
GUUUAGCAAUAUUACGGCUG | -0.169 ± 0.17 | -1.79 ± 0.1
GUUUAGCAAUAUUACGGGCA | -0.96 ± 0.15 | -1.85 ± 0.17
GUUUAGCAAUAUUACGGGCU | -0.606 ± 0.2 | -3.45 ± 0.34

Sequence | self-splicing fitness (ln) (37 °C) | self-splicing fitness (ln) (30 °C)
GUUUAGCAAUAUUACGGGGU | -2.29 ± 0.2 | -3.3 ± 0.35
GUUUAGCAAUAUUACGGGUA | -1.61 ± 0.17 | -3 ± 0.24
GUUUAGCAAUAUUACGUAAG | 0.076 ± 0.15 | -0.762 ± 0.085
GUUUAGCAAUAUUACGUCGC | -0.462 ± 0.18 | -1.67 ± 0.16
GUUUAGCAAUAUUACGUGCU | -1.31 ± 0.17 | -2.18 ± 0.16
GUUUAGCAAUAUUACGUGGG | -2.45 ± 0.23 | -3.78 ± 0.37
GUUUAGCAAUAUUACGUGGU | -1.23 ± 0.44 | 
UAAAAGCAAUAUUACGAGAU | -2.98 ± 0.2 | -3.14 ± 0.13
UAAAAGCAAUAUUACGAUUU | -0.59 ± 0.11 | -1.36 ± 0.11
UAAAAGCAAUAUUACGCAAC | -2.13 ± 0.21 | -4.54 ± 0.34
UAAAAGCAAUAUUACGCAUC | -2.36 ± 0.21 | -2.95 ± 0.15
UAAAAGCAAUAUUACGCCCG | 0.323 ± 0.23 | -0.0582 ± 0.21
UAAAAGCAAUAUUACGCCUC |  | -2.82 ± 0.43
UAAAAGCAAUAUUACGGAAG | -0.624 ± 0.15 | -2.03 ± 0.15
UAAAAGCAAUAUUACGGGCG | 0.305 ± 0.076 | -0.0526 ± 0.069
UAAAAGCAAUAUUACGGGUC | -2.82 ± 0.27 | -3.09 ± 0.25
UAAAAGCAAUAUUACGGGUU | -1.48 ± 0.12 | -3.85 ± 0.28
